{"source": "paper PMC4150794", "about": "“Homodimerization of RBPMS2 through a new RRM-interaction motif is necessary to control smooth muscle plasticity” (Nucleic Acids Research, 2014)", "biological_target": "the molecule itself", "test": "SEC-MALS; Superdex 75 10/300, 20 mM Tris-HCl pH 8, 300 mM NaCl; loaded at 2 mg/ml (RBPMS2-Nter) or 4 mg/ml (RBPMS2-Nter-L49E); monomer to dimer"}
{"protein": "RBPMS2-Nter (human RBPMS2 residues 27-117, RRM domain) (domain or fragment, 15N- or 15N/13C-labelled for NMR; also called pET22-RBPMS2-Nter; RRM domain of RBPMS2; source: E. coli BL231DE3 (so in the source), purified (His Trap FF)) not shown", "values": [{"measurement": "stoichiometry N", "value": 2}]}
